B1: Polycystin-2 (Homo sapiens), Q13563 (parent)
chain: MVNSSRVQPQQPGDAKRPPAPRAPDPGRLMAGCAAVGASLAAPGGLCEQRGLEIEMQRIRQAAARDPPAGAAASPSPPLSSCSRQAWSRDNPGFEAEEEEEEVEGEEGGMVVEMDVEWRPGSRRSAASSAVSSVGARSRGLGGYHGAGHPSGRRRRREDQGPPCPSPVGGGDPLHRHLPLEGQPPRVAWAERLVRGLRGLWGTRLMEESSTNREKYLKSVLRELVTYLLFLIVLCILTYGMMSSNVYYYTRMMSQLFLDTPVSKTEKTNFKTLSSMEDFWKFTEGSLLDGLYWKMQPSNQTEADNRSFIFYENLLLGVPRIRQLRVRNGSCSIPQDLRDEIKECYDVYSVSSEDRAPFGPRNGTAWIYTSEKDLNGSSHWGIIATYSGAGYYLDLSRTREETAAQVASLKKNVWLDRGTRATFIDFSVYNANINLFCVVRLLVEFPATGGVIPSWQFQPLKLIRYVTTFDFFLAACEIIFCFFIFYYVVEEILEIRIHKLHYFRSFWNCLDVVIVVLSVVAIGINIYRTSNVEVLLQFLEDQNTFPNFEHLAYWQIQFNNIAAVTVFFVWIKLFKFINFNRTMSQLSTTMSRCAKDLFGFAIMFFIIFLAYAQLAYLVFGTQVDDFSTFQECIFTQFRIILGDINFAEIEEANRVLGPIYFTTFVFFMFFILLNMFLAIINDTYSEVKSDLAQQKAEMELSDLIRKGYHKALVKLKLKKNTVDDISESLRQGGGKLNFDELRQDLKGKGHTDAEIEAIFTKYDQDGDQELTEHEHQQMRDDLEKEREDLDLDHSSLPRPMSSRSFPRSLDDSEEDDDEDSGHSSRRRGSISSGVSYEEFQVLVRRVDRMEHSIGSIVSKIDAVIVKLEIMERAKLKRREVLGRLLDGVAEDERLGRDSEIHREQMERLVREELERWESDDAASQISHGLGTPVGLNGQPRPRSSRPSSSQSTEGMEGAGGNGSSNVHV

Variants of: B1
Details: with pkd1_human PKD1, P98161
Chain of pkd1_human PKD1, P98161 (P98161 whole entry, looked up): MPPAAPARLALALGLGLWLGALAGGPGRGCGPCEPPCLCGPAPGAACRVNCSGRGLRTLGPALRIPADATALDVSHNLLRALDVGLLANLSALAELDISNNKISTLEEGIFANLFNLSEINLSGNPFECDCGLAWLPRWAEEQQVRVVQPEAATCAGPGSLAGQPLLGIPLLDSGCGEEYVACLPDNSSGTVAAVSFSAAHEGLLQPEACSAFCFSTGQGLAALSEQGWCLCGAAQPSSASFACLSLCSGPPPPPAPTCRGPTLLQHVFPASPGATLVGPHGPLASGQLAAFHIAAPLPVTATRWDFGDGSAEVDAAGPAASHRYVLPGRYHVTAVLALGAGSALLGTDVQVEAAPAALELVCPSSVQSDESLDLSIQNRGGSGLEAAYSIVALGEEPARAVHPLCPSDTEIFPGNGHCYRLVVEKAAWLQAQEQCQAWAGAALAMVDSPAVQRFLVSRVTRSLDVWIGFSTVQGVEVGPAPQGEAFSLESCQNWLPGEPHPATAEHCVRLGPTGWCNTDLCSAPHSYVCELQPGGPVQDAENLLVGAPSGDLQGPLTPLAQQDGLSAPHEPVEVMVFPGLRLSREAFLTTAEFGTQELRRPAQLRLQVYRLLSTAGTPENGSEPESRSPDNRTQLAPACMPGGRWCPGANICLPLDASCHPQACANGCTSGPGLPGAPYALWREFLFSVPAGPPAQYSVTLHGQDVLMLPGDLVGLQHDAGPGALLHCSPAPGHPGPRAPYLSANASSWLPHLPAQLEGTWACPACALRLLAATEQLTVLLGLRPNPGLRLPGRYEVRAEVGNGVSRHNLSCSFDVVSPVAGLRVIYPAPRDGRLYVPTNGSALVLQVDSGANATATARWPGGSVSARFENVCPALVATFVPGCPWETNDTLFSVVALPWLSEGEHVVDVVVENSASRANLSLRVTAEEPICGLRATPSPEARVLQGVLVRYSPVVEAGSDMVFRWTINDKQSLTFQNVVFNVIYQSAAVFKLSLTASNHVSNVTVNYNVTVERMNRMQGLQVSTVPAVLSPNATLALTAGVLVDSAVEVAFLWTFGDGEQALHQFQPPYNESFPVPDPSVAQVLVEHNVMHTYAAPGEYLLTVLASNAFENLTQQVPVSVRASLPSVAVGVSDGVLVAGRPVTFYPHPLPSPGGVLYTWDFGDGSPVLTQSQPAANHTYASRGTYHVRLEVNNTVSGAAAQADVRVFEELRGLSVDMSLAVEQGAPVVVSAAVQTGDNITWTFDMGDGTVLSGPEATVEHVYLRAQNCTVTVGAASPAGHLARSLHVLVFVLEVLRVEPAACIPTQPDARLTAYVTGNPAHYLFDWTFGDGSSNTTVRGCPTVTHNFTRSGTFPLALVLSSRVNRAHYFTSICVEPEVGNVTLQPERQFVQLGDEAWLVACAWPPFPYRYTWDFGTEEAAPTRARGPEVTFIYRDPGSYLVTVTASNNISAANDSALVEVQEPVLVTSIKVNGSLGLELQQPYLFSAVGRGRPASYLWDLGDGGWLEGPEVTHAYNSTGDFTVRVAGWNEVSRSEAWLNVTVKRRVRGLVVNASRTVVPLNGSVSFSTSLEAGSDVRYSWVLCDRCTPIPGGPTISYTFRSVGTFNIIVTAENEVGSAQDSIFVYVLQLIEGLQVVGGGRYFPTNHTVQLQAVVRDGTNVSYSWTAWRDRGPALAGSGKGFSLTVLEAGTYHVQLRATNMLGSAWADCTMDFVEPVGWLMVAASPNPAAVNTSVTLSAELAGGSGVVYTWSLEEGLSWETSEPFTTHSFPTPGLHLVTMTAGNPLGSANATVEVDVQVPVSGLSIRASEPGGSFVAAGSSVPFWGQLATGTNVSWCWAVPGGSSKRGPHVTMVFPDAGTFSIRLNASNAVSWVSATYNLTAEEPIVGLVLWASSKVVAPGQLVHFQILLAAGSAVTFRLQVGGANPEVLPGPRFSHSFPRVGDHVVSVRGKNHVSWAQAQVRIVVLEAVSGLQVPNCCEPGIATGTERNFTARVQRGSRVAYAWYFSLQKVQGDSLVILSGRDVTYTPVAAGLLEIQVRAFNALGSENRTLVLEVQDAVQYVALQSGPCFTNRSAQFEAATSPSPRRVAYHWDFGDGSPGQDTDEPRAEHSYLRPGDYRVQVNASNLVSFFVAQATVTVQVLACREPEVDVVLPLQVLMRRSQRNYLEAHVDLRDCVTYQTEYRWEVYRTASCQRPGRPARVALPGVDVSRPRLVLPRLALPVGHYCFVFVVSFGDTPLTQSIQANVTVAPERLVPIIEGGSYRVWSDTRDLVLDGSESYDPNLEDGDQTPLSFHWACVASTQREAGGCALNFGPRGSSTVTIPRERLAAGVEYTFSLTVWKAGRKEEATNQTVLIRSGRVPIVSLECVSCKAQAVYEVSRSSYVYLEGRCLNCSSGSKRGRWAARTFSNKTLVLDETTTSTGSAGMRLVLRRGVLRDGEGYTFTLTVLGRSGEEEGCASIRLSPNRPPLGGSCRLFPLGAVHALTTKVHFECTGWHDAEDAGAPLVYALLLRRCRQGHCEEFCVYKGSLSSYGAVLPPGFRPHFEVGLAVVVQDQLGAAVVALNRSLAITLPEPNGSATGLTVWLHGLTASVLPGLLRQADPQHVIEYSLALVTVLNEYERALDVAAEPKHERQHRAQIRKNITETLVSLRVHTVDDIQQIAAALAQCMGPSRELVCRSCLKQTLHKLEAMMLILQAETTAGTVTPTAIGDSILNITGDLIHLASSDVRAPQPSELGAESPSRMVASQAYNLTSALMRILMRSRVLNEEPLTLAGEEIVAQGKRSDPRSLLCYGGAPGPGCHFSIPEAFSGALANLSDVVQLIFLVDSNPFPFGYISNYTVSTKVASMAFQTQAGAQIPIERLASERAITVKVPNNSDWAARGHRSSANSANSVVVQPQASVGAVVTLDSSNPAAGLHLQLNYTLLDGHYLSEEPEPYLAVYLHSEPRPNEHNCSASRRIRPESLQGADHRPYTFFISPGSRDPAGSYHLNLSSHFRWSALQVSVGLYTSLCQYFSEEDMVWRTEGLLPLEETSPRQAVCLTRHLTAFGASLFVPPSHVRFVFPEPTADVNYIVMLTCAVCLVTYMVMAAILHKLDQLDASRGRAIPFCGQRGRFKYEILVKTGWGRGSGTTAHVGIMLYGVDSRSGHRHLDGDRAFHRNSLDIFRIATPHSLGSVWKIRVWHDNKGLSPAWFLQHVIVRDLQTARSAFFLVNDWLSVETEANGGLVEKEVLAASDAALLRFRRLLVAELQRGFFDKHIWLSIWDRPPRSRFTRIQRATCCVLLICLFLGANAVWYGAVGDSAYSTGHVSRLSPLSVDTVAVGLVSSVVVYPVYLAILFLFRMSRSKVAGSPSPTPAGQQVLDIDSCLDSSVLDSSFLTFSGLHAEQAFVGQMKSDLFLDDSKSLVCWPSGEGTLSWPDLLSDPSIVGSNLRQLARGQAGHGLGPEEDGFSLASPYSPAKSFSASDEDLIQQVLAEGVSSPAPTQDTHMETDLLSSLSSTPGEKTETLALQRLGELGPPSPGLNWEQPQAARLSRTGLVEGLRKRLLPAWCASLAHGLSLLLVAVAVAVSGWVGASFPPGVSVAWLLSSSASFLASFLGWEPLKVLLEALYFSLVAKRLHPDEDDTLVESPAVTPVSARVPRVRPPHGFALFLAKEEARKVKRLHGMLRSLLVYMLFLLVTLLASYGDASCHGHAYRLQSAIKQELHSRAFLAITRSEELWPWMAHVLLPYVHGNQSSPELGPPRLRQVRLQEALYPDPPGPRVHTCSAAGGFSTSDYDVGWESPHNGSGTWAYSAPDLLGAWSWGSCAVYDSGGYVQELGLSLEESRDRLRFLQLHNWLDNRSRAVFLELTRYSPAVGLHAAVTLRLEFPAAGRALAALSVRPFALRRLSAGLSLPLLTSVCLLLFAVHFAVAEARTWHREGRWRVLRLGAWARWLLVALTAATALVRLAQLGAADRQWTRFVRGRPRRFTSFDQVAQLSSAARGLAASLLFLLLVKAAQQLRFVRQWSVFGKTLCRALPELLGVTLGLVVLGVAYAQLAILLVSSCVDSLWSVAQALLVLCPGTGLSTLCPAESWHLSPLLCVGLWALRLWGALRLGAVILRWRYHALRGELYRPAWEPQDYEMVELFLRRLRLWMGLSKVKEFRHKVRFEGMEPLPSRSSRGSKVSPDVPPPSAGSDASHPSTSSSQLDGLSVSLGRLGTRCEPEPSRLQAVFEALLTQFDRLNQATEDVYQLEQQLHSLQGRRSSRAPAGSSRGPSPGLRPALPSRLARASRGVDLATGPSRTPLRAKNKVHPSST

Variant	effect of a mutation on the interaction
I860A	disrupting interaction
L867A	disrupting interaction

Now from value to variant:

effect of a mutation on the interaction	Variant
disrupting interaction	I853A
disrupting interaction	V846A
